According to US20040192900A1 (published 2004):

biological target: CD22mFc (UniProt P20273 20-687); assay: Biacore

Row | Kd [nM] | Binder
1 | 0.204 | chimeric 5/44 variant K60R (antibody, V domains shown) VH: EVQLQQSGTVLARPGASVKMSCKASGYRFTNYWIHWVKQRPGQGLEWIGGINPGNNYTTYRRNLKGKATLTAVTSASTAYMDLSSLTSEDSAVYYCTREGYGNYGAWFAYWGQGTLVTVSS VL: DVVVTQTPLSLPVSFGDQVSISCRSSQSLANSYGNTFLSWYLHKPGQSPQLLIYGISNRFSGVPDRFTGSGSGTDFTLKISTIKPEDLGMYYCLQGTHQPYTFGGGTKLEIKR
2 | 0.327 | chimeric 5/44 variant N55Q (antibody, V domains shown) VH: EVQLQQSGTVLARPGASVKMSCKASGYRFTNYWIHWVKQRPGQGLEWIGGINPGNQYTTYKRNLKGKATLTAVTSASTAYMDLSSLTSEDSAVYYCTREGYGNYGAWFAYWGQGTLVTVSS VL: DVVVTQTPLSLPVSFGDQVSISCRSSQSLANSYGNTFLSWYLHKPGQSPQLLIYGISNRFSGVPDRFTGSGSGTDFTLKISTIKPEDLGMYYCLQGTHQPYTFGGGTKLEIKR
3 | 0.066 | chimeric 5/44 variant T57A (antibody, V domains shown) VH: EVQLQQSGTVLARPGASVKMSCKASGYRFTNYWIHWVKQRPGQGLEWIGGINPGNNYATYKRNLKGKATLTAVTSASTAYMDLSSLTSEDSAVYYCTREGYGNYGAWFAYWGQGTLVTVSS VL: DVVVTQTPLSLPVSFGDQVSISCRSSQSLANSYGNTFLSWYLHKPGQSPQLLIYGISNRFSGVPDRFTGSGSGTDFTLKISTIKPEDLGMYYCLQGTHQPYTFGGGTKLEIKR
